Assay results from patent publication US20250009896A1, “SUPR[…] BASED VIRAL […] CAPTURE FOR PREVENTION AND THERAPY OF VIRAL INFECTION” (The Johns Hopkins University, priority 2023, published 2025).

What was measured:
[1] = biological target: T1, Recombinant human angiotensin-converting enzyme 2 (ACE2) protein, carrier-free (R&D Systems) (human), Q9BYF1; assay: calculated reference value for the zeta potential of the mixture
[2] = biological target: T1, Recombinant human …

T1 sequence (Q9BYF1 18-740 limits assumed): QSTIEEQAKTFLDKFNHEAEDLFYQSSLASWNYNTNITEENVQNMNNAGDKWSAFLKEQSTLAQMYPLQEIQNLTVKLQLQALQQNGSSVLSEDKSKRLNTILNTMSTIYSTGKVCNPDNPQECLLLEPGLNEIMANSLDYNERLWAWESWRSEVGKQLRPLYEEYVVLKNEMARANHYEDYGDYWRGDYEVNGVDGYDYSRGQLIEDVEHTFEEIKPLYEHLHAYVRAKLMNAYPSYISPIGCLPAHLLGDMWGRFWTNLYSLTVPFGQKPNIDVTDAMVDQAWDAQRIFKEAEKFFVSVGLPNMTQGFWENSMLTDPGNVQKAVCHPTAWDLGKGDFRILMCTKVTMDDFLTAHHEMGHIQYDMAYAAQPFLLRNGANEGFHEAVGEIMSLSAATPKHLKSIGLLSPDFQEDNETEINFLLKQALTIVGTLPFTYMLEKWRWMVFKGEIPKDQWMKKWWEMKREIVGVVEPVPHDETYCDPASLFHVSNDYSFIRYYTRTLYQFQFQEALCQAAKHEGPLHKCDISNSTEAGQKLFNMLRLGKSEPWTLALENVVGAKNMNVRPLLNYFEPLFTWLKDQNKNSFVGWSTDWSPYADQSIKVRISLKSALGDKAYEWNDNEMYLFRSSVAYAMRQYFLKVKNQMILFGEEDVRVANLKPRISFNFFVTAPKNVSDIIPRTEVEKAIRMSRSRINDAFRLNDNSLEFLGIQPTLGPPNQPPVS

**Q.** VVVGKKGGYPKYPCTGSGSDGDELCGWYPHWPYR (modifications not checked) [sLigand peptide amphiphile (scrambled analog of Ligand)] was tested. Which intensity-averaged zeta potential calculated assuming no interaction [1] did it give?
**A.** -19 mV

**Q.** What about the zeta potential of the mixture, measured [2] of the same binder?
**A.** -19.2 mV
